In paper PMC4938386, “Calcium Influx of Mast Cells Is Inhibited by Aptamers Targeting the First Extracellular Domain of Orai1”:

T1: Orai1 peptide (first extracellular domain) (UniProt Q96D31)
T1 chain: DADHDYPPGLL


Experiments:
[1] = target: Orai1 peptide (first extracellular domain) (UniProt Q96D31); assay: ELONA; settings: 0.1 ug/well aptamer; lowest of six; value from stated range; SHCMK: 20 mM Hepes pH 7.35, 120 mM KCl, 1 mM CaCl2, 1 mM MgCl2; 37 C, 3 h (2 h for Kd); peptide-coated plates, wash with 0.05% Tween …
Target sequence in this assay (Q96D31 whole entry, looked up, the tested form may be a part): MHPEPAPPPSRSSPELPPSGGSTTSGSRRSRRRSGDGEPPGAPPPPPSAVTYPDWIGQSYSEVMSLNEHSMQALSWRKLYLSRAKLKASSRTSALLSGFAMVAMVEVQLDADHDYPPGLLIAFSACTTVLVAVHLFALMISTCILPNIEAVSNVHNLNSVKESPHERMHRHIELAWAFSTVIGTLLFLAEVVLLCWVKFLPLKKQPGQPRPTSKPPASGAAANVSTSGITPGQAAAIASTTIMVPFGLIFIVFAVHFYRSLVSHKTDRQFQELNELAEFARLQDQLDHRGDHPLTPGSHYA

[2] = target: T1, Orai1 peptide (first extracellular …); assay: ELONA; SHCMK: 20 mM Hepes pH 7.35, 120 mM KCl, 1 mM CaCl2, 1 mM MgCl2; 37 C, 3 h (2 h for Kd); peptide-coated plates, wash with 0.05% Tween 20; settings: tags: none stated; coated on polystyrene plate; label: biotin

Row | Molecule | binding signal [1] [OD450] | binding result [2]
1 | TGCGAGCATCTCGCTATCAGAGTGAGGTGATTTGTGCATA [Aptamer Y8] | 1.18 | 
2 | GGTACCGCAGAATTGGGAAGAGATAGA (ssDNA) [ONT3] |  | no binding
3 | TAGGATCCCCAGACCTGCCCGCCATGT (ssDNA) [ONT2] |  | no binding
4 | TCAAGCTTATGACCGAGCGCCGCGTGCC (ssDNA) [ONT1] |  | no binding
